Measurements reported in US20260097113A1 (Pfizer, published 2026).

Experiments:
[1] = biological target: RSV A + RSV B bivalent composition (RSV subtype A; RSV subtype B); assay: AM14 Fab titration by SEC; Target cycle; T0
[2] = biological target: RSV A + RSV B bivalent composition (RSV subtype A; RSV subtype B); assay: AM14 Fab titration by SEC; Low-Fast cycle; 1 M 40°C
[3] = biological target: RSV A + RSV B bivalent composition (RSV subtype A; RSV subtype B); assay: AM14 Fab titration by SEC; Low-Fast cycle; 8 M 2-8°C
[4] = biological target: RSV A + RSV B bivalent composition (RSV subtype A; RSV subtype B); assay: AM14 Fab titration by SEC; High-Slow 2 cycle; 8 M 40°C
[5] = biological target: RSV A + RSV B bivalent composition (RSV subtype A; RSV subtype B); assay: AM14 Fab titration by SEC; Low-Fast cycle; 1 M 2-8°C (second value)
[6] = biological target: RSV A + RSV B bivalent composition (RSV subtype A; RSV subtype B); assay: AM14 Fab titration by SEC; High-Slow 1 cycle; 1 M 25°C (second value)
[7] = biological target: RSV A + RSV B bivalent composition (RSV subtype A; RSV subtype B); assay: AM14 Fab titration by SEC; High-Slow 2 cycle; 1 M 25°C (second value)
[8] = biological target: RSV A + RSV B bivalent composition (RSV subtype A; RSV subtype B); assay: AM14 Fab titration by SEC; composition of Table 17; Pre-lyo Prep 1, T0
[9] = biological target: T1, RSV F protein of subtype A comprising a polypeptide of SEQ ID NO: 1 and a polypeptide of SEQ ID NO: 2 (RSV subtype A, UniProt P11209 137-513; P03420 26-109); assay: AM14 ELISA; F15 (pH 6, 0 mM NaCl, 9% sucrose); T0
T1 construct: Stabilized prefusion F trimer made of three F2-F1 heterodimers; Produced recombinantly in CHO cells; also called RSV A; RSVA
T1 chain 1: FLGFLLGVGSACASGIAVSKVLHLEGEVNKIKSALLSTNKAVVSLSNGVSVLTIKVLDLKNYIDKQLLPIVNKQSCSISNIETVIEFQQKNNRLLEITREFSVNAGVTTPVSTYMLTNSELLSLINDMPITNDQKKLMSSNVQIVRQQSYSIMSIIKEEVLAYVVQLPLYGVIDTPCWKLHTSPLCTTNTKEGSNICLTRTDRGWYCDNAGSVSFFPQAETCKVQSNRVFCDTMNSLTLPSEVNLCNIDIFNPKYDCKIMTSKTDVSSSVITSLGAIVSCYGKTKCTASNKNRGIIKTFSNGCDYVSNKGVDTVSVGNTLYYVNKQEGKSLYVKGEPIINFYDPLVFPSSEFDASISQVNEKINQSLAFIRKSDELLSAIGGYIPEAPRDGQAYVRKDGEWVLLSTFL
T1 chain 2: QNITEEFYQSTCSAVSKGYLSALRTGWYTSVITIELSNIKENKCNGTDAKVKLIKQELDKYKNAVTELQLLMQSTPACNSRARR

[10] = biological target: T1, RSV F protein of subtype A comprising a …; assay: AM14 ELISA; F9 (pH 8, 50 mM NaCl, 4.5% sucrose); T0
[11] = biological target: T1, RSV F protein of subtype A comprising a …; assay: AM14 ELISA; F10 (pH 7, 50 mM NaCl, 4.5% sucrose); T0
[12] = biological target: T1, RSV F protein of subtype A comprising a …; assay: AM14 ELISA; F15 (pH 6, 0 mM NaCl, 9% sucrose); 1 wk 25°C
[13] = biological target: T1, RSV F protein of subtype A comprising a …; assay: AM14 ELISA; F6 (pH 7, 0 mM NaCl, 4.5% sucrose); 2 wk 5°C
[14] = biological target: T1, RSV F protein of subtype A comprising a …; assay: AM14 ELISA; F6 (pH 7, 0 mM NaCl, 4.5% sucrose); 2 wk 25°C
[15] = biological target: T1, RSV F protein of subtype A comprising a …; assay: AM14 ELISA; F12 (pH 8, 100 mM NaCl, 9.0% sucrose); 2 wk 5°C
[16] = biological target: T1, RSV F protein of subtype A comprising a …; assay: AM14 ELISA; F14 (pH 7, 50 mM NaCl, 4.5% sucrose); 1 wk 25°C
[17] = biological target: T1, RSV F protein of subtype A comprising a …; assay: AM14 ELISA; F13 (pH 7, 100 mM NaCl, 4.5% sucrose); 1 wk 25°C
[18] = biological target: T1, RSV F protein of subtype A comprising a …; assay: AM14 ELISA; F19 (pH 7, 50 mM NaCl, 3% trehalose + 3% mannitol); 1 wk 5°C

## AM14 Fab
[1]
  Prefusion Content (%): 68%
[2]
  Prefusion Content (%): 65%
[3]
  Prefusion Content (%): 73%
[4]
  Prefusion Content (%): 61%
[5]
  Prefusion Content (%): 53%
[6]
  Prefusion Content (%): 65%
[7]
  Prefusion Content (%): 59%
[8]
  Prefusion Content (%): 85%

B1: AM14 (trimeric prefusion specific antibody of the AM14 ELISA) (antibody, V domains shown)
VH: EVQLVESGGGVVQPGRSLRLSCAASGFSFSHYAMHWVRQAPGKGLEWVAVISYDGENTYYADSVKGRFSISRDNSKNTVSLQMNSLRPEDTALYYCARDRIVDDYYYYGMDVWGQGATVTVSS
VL: DIQMTQSPSSLSASVGDRVTITCQASQDIKKYLNWYHQKPGKVPELLMHDASNLETGVPSRFSGRGSGTDFTLTISSLQPEDIGTYYCQQYDNLPPLTFGGGTKVEIKR
notes: Antibody as used in the AM14 ELISA, detected with an HRP-labeled secondary antibody
[9]
  AM14 prefusion content (%), relative to standard: 106%
[10]
  AM14 prefusion content (%), relative to standard: 94%
[11]
  AM14 prefusion content (%), relative to standard: 104%
[12]
  AM14 prefusion content (%), relative to standard: 99%
[13]
  AM14 prefusion content (%), relative to standard: 77%
[14]
  AM14 prefusion content (%), relative to standard: 83%
[15]
  AM14 prefusion content (%), relative to standard: 72%
[16]
  AM14 prefusion content (%), relative to standard: 77%
[17]
  AM14 prefusion content (%), relative to standard: 90%
[18]
  AM14 prefusion content (%), relative to standard: 74%
